According to publication PMC6823450:
pKd: −log10 of the molar value. Several values for one entry are separate records, joined by “and”; a condition that tells them apart may be missing. Equal entries are not always repeated.

Key:
[1] = target: HIV-1 matrix protein p17 (wild type) (HIV-1) (UniProt P03347); test: SPR; p17 immobilised on a CM5 sensorchip by amine coupling (2,500 RU); free p17 (15.7-2000 nM) injected in HBS-EP (10 mM HEPES pH 7.4, 150 mM NaCl, 3 mM EDTA, 0.005% P20) for 2 min; BIAcore X 100; Kd from equilibrium RU (saturation curve, Scatchard) with two softwares; cannot tell dimer, trimer or higher oligomers apart
[2] = target: HIV-1 matrix protein p17 (wild type) (HIV-1) (UniProt P03347); test: cross-linking; p17 (2 μg/ml in 20 μl) 2 h at 37 °C in PBS alone or with heparin, then 1 mM BS3 for 2 h at 37 °C; SDS-PAGE and Western blot with anti-p17; bands of 17, 34, 51 and 68 kDa quantified

HIV-1 matrix protein p17 (wild type) (from UniProt P03347 1-132) (natural protein)
pKd [1]: 6.28 and 6.18
% of total protein as dimer [2]: 29%
% of total protein as tetramer [2]: 3%
% of total protein as trimer [2]: 12%
% of total protein remaining monomer [2]: 59%
fold increase of dimer with heparin against no heparin [2]: 2 fold
fold increase of tetramer with heparin against no heparin [2]: 3.4 fold
fold increase of trimer with heparin against no heparin [2]: 4.2 fold
stoichiometry N [2]: 2 and 3 and 4
